From patent US20030235900A1

Biological target: Strep-Tactin Macroprep resin (Cat. No. 2-1505-010; IBA GmbH)
Assay: batch binding to Strep-Tactin Macroprep resin, 1 hour in cold room; binding followed by MTSP10 activity left in the supernatant

B1: MTSP10-ST2 C122S (protease domain of human MTSP10, C122S mutant, with C-terminal Strep-tag II, expressed in Pichia pastoris) (enzyme)
chain: RIIGGTDTLEGGWPWQVSLHFVGSAYCGASVISREWLLSAAHCFHGNRLSDPTPWTAHLGMYVQGNAKFVSPVRRIVVHEYYNSQTFDYDIALLQLSIAWPETLKQLIQPISIPPTGQRVRSGEKCWVTGWGRRHEADNKGSLVLQQAEVELIDQTLCVSTYGIITSRMLCAGIMSGKRDACKGDSGGPLSCRRKSDGKWILTGIVSWGHGCGRPNFPGVYTRVSNFVPWIGGWSHPQFEK
- percent of activity retained by the resin: 50 to 70%
